According to IntAct's records for PubMed 11100732:

B1: Autophagy-related protein 3 (Saccharomyces cerevisiae), P40344 (parent)
chain: MIRSTLSSWREYLTPITHKSTFLTTGQITPEEFVQAGDYLCHMFPTWKWNEESSDISYRDFLPKNKQFLIIRKVPCDKRAEQCVEVEGPDVIMKGFAEDGDEDDVLEYIGSETEHVQSTPAGGTKDSSIDDIDELIQDMEIKEEDENDDTEEFNAKGGLAKDMAQERYYDLYIAYSTSYRVPKMYIVGFNSNGSPLSPEQMFEDISADYRTKTATIEKLPFYKNSVLSVSIHPCKHANVMKILLDKVRVVRQRRRKELQEEQELDGVGDWEDLQDDIDDSLRVDQYLIVFLKFITSVTPSIQHDYTMEGW
partner: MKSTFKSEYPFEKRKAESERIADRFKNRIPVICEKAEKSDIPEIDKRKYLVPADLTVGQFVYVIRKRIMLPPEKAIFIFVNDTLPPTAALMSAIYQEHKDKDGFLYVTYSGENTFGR

Variants of: B1
Conditions: with atg8_yeast ATG8, P38182

effect of a mutation on the interaction | Variant
disrupting interaction | C234S
disrupting interaction | C234A
